# Measurements from paper PMC4900672, “Mechanism of Mitochondrial Transcription Factor A Attenuation of CpG-Induced Antibody Production”.
# T1: TFAM (UniProt Q00059 43-246)
# T1 sequence: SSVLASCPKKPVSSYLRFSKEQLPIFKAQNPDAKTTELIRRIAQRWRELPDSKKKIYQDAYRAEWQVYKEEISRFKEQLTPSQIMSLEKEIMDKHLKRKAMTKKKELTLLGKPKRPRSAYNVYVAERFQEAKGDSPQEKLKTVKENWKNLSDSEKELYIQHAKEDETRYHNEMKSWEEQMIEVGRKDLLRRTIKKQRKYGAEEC
# T2: TFAM HMG Box A (UniProt Q00059 50-118)
# T2 sequence: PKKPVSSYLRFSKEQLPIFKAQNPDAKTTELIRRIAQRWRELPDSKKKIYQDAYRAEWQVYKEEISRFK
# T3: TFAM HMG Box B (UniProt Q00059 155-219)
# T3 sequence: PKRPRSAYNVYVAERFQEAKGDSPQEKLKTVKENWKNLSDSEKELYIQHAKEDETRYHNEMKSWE
# B1: CpG-B (PS) (XNA)
# DNA: TCGTCGTTTTGTCGTTTTGTCGTT
# modifications: phosphorothioate (positions in Fig 1A)
# B2: CpG-B (PD) (ssDNA)
# DNA: TCGTCGTTTTGTCGTTTTGTCGTT
# B3: ssLSP (PD) (ssDNA)
# DNA: TTAACAGTCACCCCCCAACTAACAC
# B4: CpG-A (PS) (XNA)
# DNA: GGGGACGACGTCGTGGGGGGG
# modifications: phosphorothioate (positions in Fig 1A)
# B5: ssLSP (PS) (XNA)
# DNA: TTAACAGTCACCCCCCAACTAACAC
# modifications: phosphorothioate (positions in Fig 1A)
# Experiments:
# Test in all cases: fluorescence anisotropy; FA: 50 mM HEPES-Na pH 7.4, 150 mM NaCl, 1 mM DTT, 20 C, 500 pM FM-DNA, Hill fit; EMSA: 5 nM FM-DNA, 8% PAGE, 0.33x TBE
# TFAM = target: T1, TFAM; details: protein: recombinant, label: 5'-6FAM
# TFAM HMG Box A = target: T2, TFAM HMG Box A; details: protein: recombinant, label: 5'-6FAM
# TFAM HMG Box B = target: T3, TFAM HMG Box B; details: protein: recombinant; label: 5'-6FAM; G-quadruplex possible (previous studies)
# [1] = G-quadruplex possible (previous studies)
binder,measurement,setting,value
B1,Kd,TFAM; single-stranded by CD,1.3 ± 0.03 nM
same,Kd,TFAM HMG Box A; single-stranded by CD,10.4 ± 1 nM
B2,Kd,TFAM; single-stranded,4.66 ± 0.2 nM
B3,Kd,TFAM; single-stranded,10.2 ± 0.5 nM
B4,Kd,TFAM HMG Box B,231 ± 30 nM
same,Kd,TFAM; [1],1.83 ± 0.07 nM
same,Kd,TFAM HMG Box A; [1],71.2 ± 38 nM
B5,Kd,TFAM; single-stranded,5.06 ± 0.1 nM
